Measurements published in paper doi:10.1101/2021.12.11.472236 (bioRxiv, 2021).

B1: 10-28 (antibody, V domains shown)
VH: QVQLVESGGGVVQPGRSLRLSCAASGFTFSSYDMHWVRQAPGKGLEWVAVISYDGSSKFYAESVKGRFTISRDNSKNTLYLQMNSLRAEETAVYYCVKDGEQLVPLFDYWGQGTLVTVSS
VL: not shown
B2: 10-28 Fab (Fab, V domains shown)
VH: B1 VH
VL: not shown
B3: 10-40 (antibody, V domains shown)
VH: QLQLQESGPGLVKPSETLSLTCTVSGGSISSSNFYWGWIRQPPGKGLEWIASITYSGRTFYNPSLKSRVAISVDTSKNQFSLKLSSVTAADTAVYYCARTFPSYYDRSGYHYLNYGMDVWGQGTTVTVSS
VL: NFMLTQPHSMSESPGKTVTISCTRSSGSIASNYVQWYQQRPGSSPTTVIYEDNQRPSGVPDRFSGSIDSSSNSASLTISGLKTEDEADYYCQSYDSSSWVFGGGTKLTVL
B4: 10-40 Fab (Fab, V domains shown)
VH: B3 VH
VL: B3 VL

Key:
[1] = target: RBD of Rf1 (Bat SARS CoV Rf1/2004, UniProt Q0QDZ0); test: ELISA
[2] = target: SARS-CoV-2 WA1 RBD (SARS-CoV-2, UniProt P0DTC2); test: crystal structure

Binder | binding result [1] | binding result [2]
B1 | binds | 
B2 |  | binds
B3 | binds | 
B4 |  | binds
